One molecule from patent publication US10400030B2 can be followed below.

In the assay the target is IL-17RA Fc fusion protein (human) (UniProt Q96F46). Kind of assay: BIAcore T200, IL-17RA Fc fusion captured on protein G surface, single-cycle kinetics. On the technique in general: In SPR one partner is held on a chip, and binding of the other changes the refractive index at the surface.

B1: clone 2.2 VH (VHH)
VHH: QVQLVQSGAEVKKPGASVKVSCKASGYPFTSYDINWVRQATGRSLEWMGWMNPTNGNTVYAQKFQDRVTMTRNTSISTAYMELSSLRSEDTAVYFCARGRRDDWKNNYWGQGTLVTVSS
Molecule B1 registered a fold improved affinity against clone 2.1 of 5 fold.
